A word on the Kd: it is the equilibrium constant for the complex coming apart.

Where two headings read alike, the source gives them in different places.

The results in this text go back to paper PMC2673055 (The Journal of biological chemistry, 2007).

Common to all, as to assay: SPR
In general terms: In SPR one partner is held on a chip, and binding of the other changes the refractive index at the surface.

For assay [1], the target named is recombinant matrilin-3 A-domain (human) (UniProt O15232).
Assay [2] concerns the target T1, full-length type IX collagen (human, UniProt P20849 24-921; Q14055 24-689; Q14050 26-684).
The target in assay [3] is T1, full-length type IX collagen. The source holds these as a separate data set.

For “vitreous form of human type IX collagen (from UniProt Q14055 24-689; Q14050 26-684) (complex)”, the Kd in assay [1] came out at 3.25 nM.

B1: full-length matrilin-3 (natural protein, UniProt O15232 29-486, looked up)
chain: DPVARPGFRRLETRGPGGSPGRRPSPAAPDGAPASGTSEPGRARGAGVCKSRPLDLVFIIDSSRSVRPLEFTKVKTFVSRIIDTLDIGPADTRVAVVNYASTVKIEFQLQAYTDKQSLKQAVGRITPLSTGTMSGLAIQTAMDEAFTVEAGAREPSSNIPKVAIIVTDGRPQDQVNEVAARAQASGIELYAVGVDRADMASLKMMASEPLEEHVFYVETYGVIEKLSSRFQETFCALDPCVLGTHQCQHVCISDGEGKHHCECSQGYTLNADKKTCSALDRCALNTHGCEHICVNDRSGSYHCECYEGYTLNEDRKTCSAQDKCALGTHGCQHICVNDRTGSHHCECYEGYTLNADKKTCSVRDKCALGSHGCQHICVSDGAASYHCDCYPGYTLNEDKKTCSATEEARRLVSTEDACGCEATLAFQDKVSSYLQRLNTKLDDILEKLKINEYGQIHR
For B1, the Kd in assay [2] was 1.5 nM.

B2: recombinant matrilin-3 A-domain (domain or fragment, human, UniProt O15232 76-263, looked up)
chain: VCKSRPLDLVFIIDSSRSVRPLEFTKVKTFVSRIIDTLDIGPADTRVAVVNYASTVKIEFQLQAYTDKQSLKQAVGRITPLSTGTMSGLAIQTAMDEAFTVEAGAREPSSNIPKVAIIVTDGRPQDQVNEVAARAQASGIELYAVGVDRADMASLKMMASEPLEEHVFYVETYGVIEKLSSRFQETFC
As for B2, the Kd in assay [3] worked out at 1.37 nM.
